Measurements reported in patent US11945858B2, “Antibodies and antibody fragments against HNAV1.7 channel and their use in pain and cancer indications” (NATIONAL RESEARCH COUNCIL OF CANADA, priority 2018, dated 2024).

Experiments:
[1] = tested on: OD1-evoked Nav1.7-mediated spontaneous pain behaviours; format: in vivo, mouse; details: 100 μg, injected 60 minutes prior to OD1; 20 min after the injection
FC5DIE3IR = molecular target: T1, FC5DIE3IR (Homo sapiens, UniProt Q15858); assay: Evaluation of apparent affinity of purified mAbs in ELISA; format: binding; details: purified mAb, OD 405 nm
T1 construct: The supernatant was collected and loaded on a 5 ml MabSelect™ SuRe™ column; made in house; host or cells: CHO-3E7 (transient, pTT5 vector), purified from supernatant
Experimental: Screening. Hybridoma supernatants were screened by ELISA to detect specific binders. To this end, 96-well half-area plates (Costar #3690) were coated with 25 μl of FC5DIE3IR or FC5-VHH or FC5-hFc-1X0 at 5 μg/ml in PBS and incubated overnight at 4° C. Microplates were washed 3 times with PBS, blocked with PBS-BSA 1%, and 25 μl of hybridoma supernatants were added and incubated at 37° C., 5% CO2 for 2 hours. Plates were washed 4 times with PBS-Tween 20 0.05% and incubated for one hour at 37° C., 5% CO2 with 25 μl of secondary antibody alkaline phosphatase conjugated F(ab′)2 goat anti-mouse IgG Fc-gamma specific (Jackson Immunoresearch #115-056-071) diluted 1/3000 in blocking buffer. After 4 washes with PBS-Tween 20 0.05%, 25 μl of a 1 mg/ml pNPP substrate solution was added and further incubated for one hour at 37° C. OD405 nm measurements were done using a microplate reader (Spectramax 340 PC, Molecular Devices).
Evaluation of apparent affinity in ELISA. Purified antibodies were assessed for their binding activity by ELISA in a dose-dependent binding curve. […] The data were analyzed with GraphPad Prism software using one-site specific binding-with Hill slope non-linear regression curve fit model to determine Bmax (maximum specific binding) and Kdapp (concentration needed to achieve a half-maximum binding at equilibrium) for each mAb tested. […]

[2] = tested on: CFA-induced thermal hyperalgesia; assay: Hargreaves Model of Hyperalgesia in rats; format: in vivo, rat
Summary of the method: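 Thermal hyperalgesia was measured with a radiant heat source applied to the plantar surface of both hind paws using a plantar Analgesia Meter. Latency was taken as the time until the rat licked or flicked the paw, with an automatic 20 sec cut-off. Rats were housed singly and randomized, testers were blinded, and % MPE = (Test−Baseline)×100/(Cut-off−Baseline).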

B1: 3A8: anti-hNav1.7 mouse monoclonal antibody, IgG2a, k; heavy chain SEQ ID NO: 12, light chain SEQ ID NO: 18 (antibody, V domains shown)
VH: QVQLQQPGAELVKPGASVKLSCKASGYTFTNYWMHWVKQRPGQGLEWIGEINPSNGRANYNEKFKSKATLTVDKSSSTAYMQLSSLTSEDSAVYYCARSPYGYYDYWGQGTTLTVSSAKTTAPSVYPLAP
VL: DVLMTQTPLSLPVSLGDQASISCRSSQSLLHSNGNTYFHWYLQKPGQSPKLLIYKVSNRFFGVPDRFSGSGSGTDFTLKISRVEAEDLGVYFCSQITHVPLTFGAGTKLELKRADAAPTVSIFPPSS
modifications: Heavy chain of the 3A8 antibody without leader sequence; Light chain of the 3A8 antibody without leader sequence
Time spent in pain behaviors (saline plus OD1 = 100%) [1]: 73.76%±5.38 | Bmax (maximum specific binding) (FC5DIE3IR): 3.2 | Percentage of effect after injection (on left paw withdrawal) ([2]; 50 μg intraplantar, 0 h): 0% | Latency paw withdrawal ([2]; 50 μg intraplantar, 1 h): 6.08 ± 0.70 s | Percentage of effect after injection (on left paw withdrawal) ([2]; 50 μg intraplantar, 1 h): 18.00% | Latency paw withdrawal ([2]; 50 μg intraplantar, 2 h): 7.38 ± 0.67 s | Percentage of effect after injection (on left paw withdrawal) ([2]; 50 μg intraplantar, 2 h): 24.09% | Latency paw withdrawal ([2]; 50 μg intraplantar, 4 h): 6.79 ± 0.50 s | Percentage of effect after injection (on left paw withdrawal) ([2]; 50 μg intraplantar, 4 h): 22.40% | Maximum effect (% Effect) ([2]; 50 μg intraplantar, reached 2 hours after injection): 24.09±3.69% | Percentage of effect after injection (on left paw withdrawal) ([2]; 100 μg intraplantar, 0 h): 0% | Latency paw withdrawal ([2]; 100 μg intraplantar, 1 h): 9.56 ± 0.70 s | Percentage of effect after injection (on left paw withdrawal) ([2]; 100 μg intraplantar, 1 h): 33.96% | Latency paw withdrawal ([2]; 100 μg intraplantar, 2 h): 10.58 ± 0.90 s | Percentage of effect after injection (on left paw withdrawal) ([2]; 100 μg intraplantar, 2 h): 40.55% | Latency paw withdrawal ([2]; 100 μg intraplantar, 4 h): 10.28 ± 1.20 s | Percentage of effect after injection (on left paw withdrawal) ([2]; 100 μg intraplantar, 4 h): 40.18% | Maximum percentage of the effect (% Effect; % MPE) ([2]; 100 μg intraplantar, time of maximum (1, 2 or 4 h)): 40.55±2.20% | Duration of the reversal of hyperalgesia ([2]; 30 mg/kg intravenous): up to 24 h | Reversal of CFA-induced hyperalgesia (in words) ([2]; 30 mg/kg intravenous): able to reverse CFA-induced hyperalgesia | Percentage of the maximum possible effect (% MPE) ([2]; 30 mg/kg intravenous (tail vein), 4 h): 26.60±3.26% | Latency paw withdrawal time ([2]; 3A8 alone 75 μg intraplantar (FIG. 18)): 10.59 ± 0.87 s | Reversal of hyperalgesia (% MPE) ([2]; 3A8 alone 75 μg intraplantar, 4 h): 35.35%±4.44 | Latency paw withdrawal ([2]; intraplantar injection, 4 hours after administration (FIG. 10)): 8.50 ± 0.94 s
